No end group written: not given here. *: point of attachment. FITC = O=C1OC2(c3ccc(O)cc3Oc3cc(O)ccc32)c2ccc(NC(=S)*)cc21
Biological target: T1, WWP2 recombinant protein (SEQ ID NO:24) (Homo sapiens (Human), UniProt O00308 1-870)
T1 construct: It was expressed with a pET28b His-tag/thrombin leader; also called WWP2 polypeptide; Nedd4 WWP2
Assay: fluorescence polarization, WWP2 dose-response up to 19.6 µM, FITC-peptide probe at 5 nM

T1 sequence (O00308 other isoform, or with tags, fused parts or gaps limits assumed): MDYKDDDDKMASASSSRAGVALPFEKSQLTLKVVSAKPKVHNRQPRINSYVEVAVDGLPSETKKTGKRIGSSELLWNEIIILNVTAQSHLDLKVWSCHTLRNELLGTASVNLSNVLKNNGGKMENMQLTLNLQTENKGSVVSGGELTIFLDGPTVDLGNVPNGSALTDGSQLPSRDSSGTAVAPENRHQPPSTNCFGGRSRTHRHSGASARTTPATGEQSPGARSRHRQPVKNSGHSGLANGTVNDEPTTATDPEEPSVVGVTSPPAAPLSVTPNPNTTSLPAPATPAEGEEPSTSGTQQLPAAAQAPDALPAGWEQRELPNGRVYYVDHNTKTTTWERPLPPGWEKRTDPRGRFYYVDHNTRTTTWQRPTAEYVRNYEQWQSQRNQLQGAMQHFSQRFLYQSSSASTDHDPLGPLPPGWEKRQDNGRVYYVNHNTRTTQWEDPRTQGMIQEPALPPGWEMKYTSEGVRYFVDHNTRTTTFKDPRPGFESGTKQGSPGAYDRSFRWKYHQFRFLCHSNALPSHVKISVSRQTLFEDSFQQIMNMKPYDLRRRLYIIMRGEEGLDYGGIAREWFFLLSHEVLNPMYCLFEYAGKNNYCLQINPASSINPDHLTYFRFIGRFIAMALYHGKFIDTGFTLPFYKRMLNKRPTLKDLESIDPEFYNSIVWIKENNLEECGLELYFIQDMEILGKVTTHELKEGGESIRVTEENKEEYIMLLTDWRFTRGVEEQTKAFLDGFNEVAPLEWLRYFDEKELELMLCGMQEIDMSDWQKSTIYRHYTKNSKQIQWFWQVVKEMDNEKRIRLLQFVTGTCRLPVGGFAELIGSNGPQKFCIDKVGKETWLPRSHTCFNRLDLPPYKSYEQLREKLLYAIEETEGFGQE

B1: FITC-labeled peptide probe with three tandem PY motif binding units derived from the p2 region of ASLV gag (SEQ ID NO:18) (peptide)
peptide: {FITC}-ATASAPPPYVGSGGGATASAPPPYVGSGGGATASAPPPYVGSGGGRRR
notes: Synthetic peptide (Biosynthesis, TX); also called FITC-peptide; FTIC-peptide
Kd: 200 nM

Source: patent publication US20200368258A1 (NORTHWESTERN UNIVERSITY, published 2020)
